This experiment has as its target T1, 15-mer peptide corresponding to residues 594-608 of HIV-1 gp160 (HIV-1 Consensus Subtype C Env Peptide Set) (HIV-1 consensus subtype C (stand-in: …, UniProt P04578, strain)).
T1 construct: 15-mer of the HIV-1 consensus subtype C Env peptide set, corresponding to residues 594-608 of HIV-1 gp160; also called single peptide that corresponds to residues 594-608 of HIV-1 gp160; NIH HIV-1 gp41 peptide; source: bought: NIH AIDS Reagent Program, HIV-1 Consensus Subtype C Env Peptide Set (cat. No. 9499)
T1 chain: GIWGCSGKLICTTAV
Put plainly: ELISA; 15-mer peptides adsorbed to microtiter plates at 10 ug/mL in 100 mM sodium bicarbonate pH 9.3 overnight at 4 C; Fab at 1 ug/mL in PBST-Milk, 1 hour at room temperature; goat anti-human HRP, absorbance at 450 nm. To be noted: both partners purified. (In an ELISA, binding on a coated surface is turned into a signal by an enzyme label.)

B1: Fab 3D6 (Fab, V domains shown)
VH: EVQLVESGGGLVQPGRSLRLSCAASGFTFNDYAMHWVRQAPGKGLEWVSGISWDSSSIGYADSVKGRFTISRDNAKNSLYLQMNSLRAEDMALYYCVKGRDYYDSGGYFTVAFDIWGQGTMVTVSS
VL: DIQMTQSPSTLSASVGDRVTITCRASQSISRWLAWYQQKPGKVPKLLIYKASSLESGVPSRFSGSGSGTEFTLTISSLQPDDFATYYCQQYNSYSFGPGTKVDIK
notes: immunoglobulin heavy chain variable region of 3D6; Ig gamma-1 chain constant region, fused after the variable region; as a Fab only part of the constant region is present; immunoglobulin light chain variable region of 3D6; Ig kappa chain constant region, fused after the variable region; Fab; residues numbered by Kabat convention; also called patient-derived near-germline antibody fragment; …
Turning to B1, the binding result was “binds”.

B2: Fab F240 (Fab, V domains shown)
VH: QVQLVQSGGGVVKPGASLRLACSASGFTFTDYYMSWIRQTPGKGLQWLAYITKDGSEKKYADSLQGRFAVSRDNANNLVFLQLNTVEDDDTGVYYCARDDGYYDRSGYYGVFDLWGQGIRVTVSS
VL: EFLLTQSPDSLAVTLGETATITCRSSRNILHSLNNKNYLAWYQQRPGQAPKLLVIWASMRVSGVADRFSGSGSGTDFALTISSLQPEDAAVYYCQHYYTTHRTFGQGTRVEIR
notes: immunoglobulin heavy chain variable region of F240; Ig gamma-1 chain constant region, fused after the variable region; as a Fab only part of the constant region is present; immunoglobulin light chain variable region of F240; Ig kappa chain constant region, fused after the variable region; Fab; residues numbered by Kabat convention; also called anti-gp41 Fab F240; source: HEK293T, transiently …
Turning to B2, the binding result is “binds”.

Source of the values: article PMC8971491, “Conformational plasticity of the HIV-1 gp41 immunodominant region is recognized by multiple non-neutralizing antibodies” (Communications Biology, 2022).
